We go through two molecules from US20120128689A1 (GlaxoSmithKline, published 2012).

In test [1] the target is T1, human IL-23 (human, UniProt Q9NPF7 20-189; P29460 23-328).
T1 sequence 1: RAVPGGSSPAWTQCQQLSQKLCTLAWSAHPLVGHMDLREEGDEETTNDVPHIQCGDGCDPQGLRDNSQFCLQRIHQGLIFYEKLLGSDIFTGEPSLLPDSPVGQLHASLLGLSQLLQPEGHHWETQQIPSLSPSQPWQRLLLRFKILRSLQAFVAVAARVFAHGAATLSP
T1 sequence 2: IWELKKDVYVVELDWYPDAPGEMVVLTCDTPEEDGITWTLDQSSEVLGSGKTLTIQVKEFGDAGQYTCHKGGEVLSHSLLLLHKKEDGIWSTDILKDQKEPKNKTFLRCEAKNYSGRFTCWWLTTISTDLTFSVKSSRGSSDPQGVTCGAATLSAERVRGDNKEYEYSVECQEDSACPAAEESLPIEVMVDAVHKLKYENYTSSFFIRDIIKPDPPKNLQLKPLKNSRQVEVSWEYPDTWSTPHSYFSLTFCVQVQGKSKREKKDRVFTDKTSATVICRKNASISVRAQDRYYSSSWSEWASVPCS
The test is described as follows: cell-based or functional assay.

Test [2] addresses T2, cyno IL-23 (cyno, limits assumed).
T2 construct: Heterodimer of p19 and p40; also called cynomolgus IL-23
T2 chain 1: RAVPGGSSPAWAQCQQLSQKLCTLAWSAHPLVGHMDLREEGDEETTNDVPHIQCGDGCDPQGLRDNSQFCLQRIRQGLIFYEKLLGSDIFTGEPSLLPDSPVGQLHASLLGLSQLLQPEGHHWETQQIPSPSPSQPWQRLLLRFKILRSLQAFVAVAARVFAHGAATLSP
T2 chain 2: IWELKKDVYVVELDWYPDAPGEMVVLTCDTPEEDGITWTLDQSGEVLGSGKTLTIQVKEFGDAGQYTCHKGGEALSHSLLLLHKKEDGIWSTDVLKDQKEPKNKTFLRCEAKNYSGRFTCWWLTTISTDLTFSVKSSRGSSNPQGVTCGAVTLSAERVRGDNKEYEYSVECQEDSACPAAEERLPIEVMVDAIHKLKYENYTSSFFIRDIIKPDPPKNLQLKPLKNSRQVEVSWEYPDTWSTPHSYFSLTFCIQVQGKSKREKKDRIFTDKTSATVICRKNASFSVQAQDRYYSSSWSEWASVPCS
Nature of the test: SPR Biacore, purified mAb captured on anti-human IgG, cyno IL-23 64-0.062 nM. As for the experimental part:
(§1) An anti-human IgG (Biacore BR-1008-39) was immobilised on a Biacore CM5 chip by primary amine coupling in accordance with the manufacturer's instructions. Anti IL-23 antibodies were captured on this surface and after a period of stabilisation, IL-23 (cyno or human) was passed over the antibody captured surface and a binding sensorgram was obtained. […] All runs were double referenced with a buffer injection over the captured antibody surface. Data was analysed using the 1:1 model using the software inherent to the Biacore T100. Analysis was carried out at 25° C. using HBS-EP buffer. Data presented in Tables 1 and 2 are on tissue culture supernatants of HEK cells transiently expressing the antibody of interest unless otherwise indicated.
(§2) This experiment was repeated with purified IL-23 antibodies and data shown in Table 3 was generated using 64, 16, 4, 1, 0.25 and 0.062 nM concentrations of human and cyno IL-23.
(Surface plasmon resonance follows binding to a sensor surface in real time, without labels.)

Test [3] concerns the target T1, human IL-23. Nature of the test: SPR Biacore, purified mAb captured on anti-human IgG, human IL-23 64-0.062 nM. Here is the method: as §1, §2
Test [4] concerns the target T1, human IL-23. The test is described as follows: SPR Biacore T100, purified mAb captured on anti-human IgG, human IL-23 64-0.062 nM.
For test [5], the target named is T1, human IL-23. The test is described as follows: SPR Biacore T100, mAb from HEK supernatant captured on anti-human IgG, human IL-23 64-0.062 nM. As for the experimental part: as §1
In test [6] the target is T2, cyno IL-23. Nature of the test: SPR Biacore T100, purified mAb captured on anti-human IgG, one concentration of cyno IL-23 (256 nM).
Test [7] addresses T2, cyno IL-23. Nature of the test: SPR Biacore T100, mAb from HEK supernatant captured on anti-human IgG, one concentration of cyno IL-23 (256 nM). As for the experimental part:
as §1

The target in test [8] is T1, human IL-23. The test is described as follows: inhibition ELISA: antibody pre-incubated with a constant concentration of human IL-23, IL-23 bound to plate-coated human IL23R Fc chimera detected with biotinylated anti-human IL12, OD450. Here is the method:
Plates were coated with human IL23R Fc chimera at […] (phosphate buffered saline). 50 μl/well of this mixture was incubated overnight at 4° C. The plates were then washed three times with Phosphate Buffered Saline with 0.05% Tween 20 (PBST). Plates were blocked with 4% skim milk powder (Fluka BioChemika #70166) PBST 100 μl/well for a minimum of 1 hour at room temperature. The plates were then washed three times with Phosphate Buffered Saline+0.05% Tween 20 (PBST). Various concentrations of antibody were incubated in a separate plate with a constant concentration of IL-23 for 1 hour at room temperature. 50 ul of each mixture were transferred to the assay plate and incubated at RT for 1 hr. They were then washed three times with Phosphate Buffered Saline+0.05% Tween 20 (PBST). Bound IL23 was detected by anti human IL12 Biotin labelled Ab (R&D systems BAF219) diluted to 100 ng/ml in 4% skim milk powder (Fluka BioChemika #70166) PBST. 50 μl/well of the biotinylated antibody was added and incubated at RT for 1 hour. The plates were then washed three times with Phosphate Buffered Saline+0.05% Tween 20 (PBST). SA HRP (GE healthcare RPN4401) was diluted 1/4000 in 4% skim milk powder (Fluka BioChemika #70166) PBS, 50 μl/well was added to the plates. The plates were then washed three times with Phosphate Buffered Saline+0.05% Tween 20 (PBST). 50 ul/well of TMB was added to the plates and incubated at RT for 15 min. 25 μl/well of 3 MH₂SO₄ was added to the wells already containing TMB. The plate was read at OD450 nm using the SOftmaxPRO versamax plate reader.
For orientation: In an ELISA, binding on a coated surface is turned into a signal by an enzyme label.

B1: A3M0 (antibody, human IgG1, kappa, V domains shown)
VH: QVQLVQSGAEVKKPGSSVKVSCKASGYTFTSYGITWVRQAPGQGLEWMGENYPRSGNTYYNEKFKGRVTITADKSTSTAYMELSSLRSEDTAVYYCARSEFISTVVAPYYYALDYWGQGTLVTVSS
VL: DIVMTQSPDSLAVSLGERATINCKASKKVTIFGSISALHWYQQKPGQPPKLIYNGAKLESGVPDRFSGSGSGTDFTLTISSLQAEDVAVYYCLQNKEVPYTFGGGTKVEIKR
notes: human gamma1 and kappa constant regions; Tested as HEK supernatant and as purified antibody; also called A3M0 purified
The term Kd denotes the constant that tells how readily two partners part at equilibrium. The koff is a measure of how fast the partners let go of each other. Lower therefore signals slow dissociation. As a reminder, the kon is a measure of how fast the partners come together. Read a high kon as fast association. In the case of B1, the “IC50 (inhibition of IL-23 driven STAT3 phosphorylation in human activated T cell blasts)” value in test [1] was found to be 0.115 nM. The dissociation constant (Kd) worked out at 0.302 nM in test [2]; 0.186 nM in test [3]; 0.197 nM in test [4]; 0.207 nM in test [5]; 0.332 nM in test [6]; 0.365 nM in test [7]. Also, the off-rate constant (koff) in test [2] came out at 0.000298 s⁻¹; in test [3], 0.000216 s⁻¹; in test [4], 0.000235 s⁻¹; in test [5], 0.000239 s⁻¹; in test [6] it was 0.000583 s⁻¹; in test [7], 0.000484 s⁻¹. Further, the kon in test [2] came to 984000 M⁻¹ s⁻¹; in test [3], 1.16e+06 M⁻¹ s⁻¹; in test [4] it was 1.19e+06 M⁻¹ s⁻¹; in test [5], 1.16e+06 M⁻¹ s⁻¹; in test [6], 1.76e+06 M⁻¹ s⁻¹; in test [7] it was 1.33e+06 M⁻¹ s⁻¹. Moreover, the “IC50 (read off the curve)” value in test [8] was roughly 0.7 nM.

B2: A24AM18 (antibody, human IgG1, kappa, V domains shown)
VH: QVQLVQSGAEVKKPGSSVKVSCKASGYTFTSYGITWVRQAPGQGLEWMGENYPRSGNIYYNEKFKGRVTITADKSTSTAYMELSSLRSEDTAVYYCARAEFISTVVAPYYYALDYWGQGTLVTVSS
VL: DIVMTQSPDSLAVSLGERATINCKASKKVTIFGSTSALHWYQQKPGQPPKLIYNLAKPESGVPDRFSGSGSGTDFTLTISSLQAEDVAVYYCLQNKEVPYTFGGGTKVEIKR
As to B2, the “IC50 (inhibition of IL-23 driven STAT3 phosphorylation in human activated T cell blasts)” value in test [1] was 0.0473 nM. Further, the equilibrium dissociation constant (Kd) was determined as 0.07 nM in test [2], 0.053 nM in test [3], 0.051 nM in test [5] and 0.092 nM in test [7]. In addition, the dissociation rate constant (koff) turned out to be 0.000132 s⁻¹ in test [2], 0.000115 s⁻¹ in test [3], 0.000122 s⁻¹ in test [5] and 0.000176 s⁻¹ in test [7]. For the same molecule, the association rate constant (kon) in test [2] came out at 1.88e+06 M⁻¹ s⁻¹; in test [3], 2.16e+06 M⁻¹ s⁻¹; in test [5] it was 2.4e+06 M⁻¹ s⁻¹; in test [7], 1.91e+06 M⁻¹ s⁻¹. For the same molecule, the “IC50 (read off the curve)” value in test [8] is roughly 0.2 nM.
